Laboratory results as given in publication PMC4838342.

Key:
mCherry-LacI-H3 = mCherry-LacI-H3 (UniProt P68431); assay: F2H (live cell imaging, recruitment to LacO array); details: n=20; parent: est. 1.7; read off a plot
MBP H3 116–135 (human) = assay: ITC; MicroCal iTC200; sNASP (180, 150, 100 μM) in the syringe injected into MBP H3 116–135 (30, 15, 10 μM) in the cell; 20 mM Hepes-KOH pH 7.5, 200 mM sodium chloride; one-site model

Row | Substance | other: enrichment ratio (mCherry-LacI-H3) | Kd (MBP H3 116–135 (human)) | stoichiometry N (MBP H3 116–135 (human))
1 | EGFP-sNASP (from UniProt P49321-2) E211A; E215A; E217A | 1.2 |  | 
2 | EGFP-sNASP (from UniProt P49321-2) E246A; Y249S; L253S | 1.1 |  | 
3 | sNASP (from UniProt P49321-2 1-449) (natural protein; other documents disagree on this pair) |  | 47 to 68 nM | 1
